Experimental data: PMC3733360 (Structure (London, England : 1993), 2008)

What was measured:
[1] = molecular target: T1, Sec9c (amino acids 401-651 of Sec9), wild type (yeast, UniProt P40357 401-651); assay: FRET or BRET
T1 sequence (looked up): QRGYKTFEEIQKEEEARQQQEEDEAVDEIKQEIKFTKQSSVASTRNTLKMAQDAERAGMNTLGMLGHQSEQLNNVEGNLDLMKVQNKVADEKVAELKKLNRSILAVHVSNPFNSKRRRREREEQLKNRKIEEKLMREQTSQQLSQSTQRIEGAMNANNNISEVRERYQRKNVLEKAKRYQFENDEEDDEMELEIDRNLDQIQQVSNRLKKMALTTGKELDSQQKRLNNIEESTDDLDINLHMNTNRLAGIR

[2] = molecular target: T2, Snc2pS (soluble Snc2p, amino acids 1-93), wild type (yeast, UniProt P33328 1-93); assay: EPR line shape
T2 sequence (looked up): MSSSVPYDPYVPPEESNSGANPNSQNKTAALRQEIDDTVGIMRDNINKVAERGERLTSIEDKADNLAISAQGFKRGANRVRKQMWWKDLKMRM

[3] = molecular target: T3, Sso1pHT (amino acids 185-290 of Sso1p lacking the regulatory Habc domain), wild type (yeast, UniProt P32867 185-290); assay: EPR line shape
T3 sequence (looked up): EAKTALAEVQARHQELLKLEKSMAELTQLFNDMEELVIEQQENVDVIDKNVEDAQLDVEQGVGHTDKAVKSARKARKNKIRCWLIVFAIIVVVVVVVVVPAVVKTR

B1: Sso1pHT E185C labeled with Cy3 (domain or fragment, yeast, UniProt P32867 185-290, looked up)
chain: CAKTALAEVQARHQELLKLEKSMAELTQLFNDMEELVIEQQENVDVIDKNVEDAQLDVEQGVGHTDKAVKSARKARKNKIRCWLIVFAIIVVVVVVVVVPAVVKTR
modifications: Cy3 maleimide on cysteine 185
B1: binds [1].

B2: full-length Snc2p (amino acids 1-115) P13C labeled with Cy5 (natural protein, yeast, UniProt P33328 1-115, looked up)
chain: MSSSVPYDPYVPCEESNSGANPNSQNKTAALRQEIDDTVGIMRDNINKVAERGERLTSIEDKADNLAISAQGFKRGANRVRKQMWWKDLKMRMCLFLVVIILLVVIIVPIVVHFS
modifications: Cy5 maleimide on cysteine 13
B2: binds [1].

B3: Sec9c D599C, spin labeled with MTSSL (SN2) (domain or fragment, yeast, UniProt P40357 401-651, looked up)
chain: QRGYKTFEEIQKEEEARQQQEEDEAVDEIKQEIKFTKQSSVASTRNTLKMAQDAERAGMNTLGMLGHQSEQLNNVEGNLDLMKVQNKVADEKVAELKKLNRSILAVHVSNPFNSKRRRREREEQLKNRKIEEKLMREQTSQQLSQSTQRIEGAMNANNNISEVRERYQRKNVLEKAKRYQFENDEEDDEMELEIDRNLCQIQQVSNRLKKMALTTGKELDSQQKRLNNIEESTDDLDINLHMNTNRLAGIR
modifications: MTSSL nitroxide spin label on cysteine 599
B3 was tested, and the “percent of SN2 in an unstructured conformation (not in the complex)” value (“percent of SN2 … (not in the complex)” for short) [2] was about 60% and the “percent of SN2 … (not in the complex)” value [3] was about 60%.

B4: Sec9c H641C, spin labeled with MTSSL (SN2) (domain or fragment, yeast, UniProt P40357 401-651, looked up)
chain: QRGYKTFEEIQKEEEARQQQEEDEAVDEIKQEIKFTKQSSVASTRNTLKMAQDAERAGMNTLGMLGHQSEQLNNVEGNLDLMKVQNKVADEKVAELKKLNRSILAVHVSNPFNSKRRRREREEQLKNRKIEEKLMREQTSQQLSQSTQRIEGAMNANNNISEVRERYQRKNVLEKAKRYQFENDEEDDEMELEIDRNLDQIQQVSNRLKKMALTTGKELDSQQKRLNNIEESTDDLDINLCMNTNRLAGIR
modifications: MTSSL nitroxide spin label on cysteine 641
For B4, the “percent of SN2 … (not in the complex)” value [2] was about 60% and the “percent of SN2 … (not in the complex)” value [3] was about 60%.

B5: Sec9c N606C, spin labeled with MTSSL (SN2) (domain or fragment, yeast, UniProt P40357 401-651, looked up)
chain: QRGYKTFEEIQKEEEARQQQEEDEAVDEIKQEIKFTKQSSVASTRNTLKMAQDAERAGMNTLGMLGHQSEQLNNVEGNLDLMKVQNKVADEKVAELKKLNRSILAVHVSNPFNSKRRRREREEQLKNRKIEEKLMREQTSQQLSQSTQRIEGAMNANNNISEVRERYQRKNVLEKAKRYQFENDEEDDEMELEIDRNLDQIQQVSCRLKKMALTTGKELDSQQKRLNNIEESTDDLDINLHMNTNRLAGIR
modifications: MTSSL nitroxide spin label on cysteine 606
With B5 the “percent of SN2 … (not in the complex)” value [2] was about 60% and the “percent of SN2 … (not in the complex)” value [3] was about 60%.

B6: Sec9c N627C, spin labeled with MTSSL (SN2) (domain or fragment, yeast, UniProt P40357 401-651, looked up)
chain: QRGYKTFEEIQKEEEARQQQEEDEAVDEIKQEIKFTKQSSVASTRNTLKMAQDAERAGMNTLGMLGHQSEQLNNVEGNLDLMKVQNKVADEKVAELKKLNRSILAVHVSNPFNSKRRRREREEQLKNRKIEEKLMREQTSQQLSQSTQRIEGAMNANNNISEVRERYQRKNVLEKAKRYQFENDEEDDEMELEIDRNLDQIQQVSNRLKKMALTTGKELDSQQKRLCNIEESTDDLDINLHMNTNRLAGIR
modifications: MTSSL nitroxide spin label on cysteine 627
For B6, the “percent of SN2 … (not in the complex)” value [2] was about 60% and the “percent of SN2 … (not in the complex)” value [3] was about 60%.

B7: Sec9c D620C, spin labeled with MTSSL (SN2) (domain or fragment, yeast, UniProt P40357 401-651, looked up)
chain: QRGYKTFEEIQKEEEARQQQEEDEAVDEIKQEIKFTKQSSVASTRNTLKMAQDAERAGMNTLGMLGHQSEQLNNVEGNLDLMKVQNKVADEKVAELKKLNRSILAVHVSNPFNSKRRRREREEQLKNRKIEEKLMREQTSQQLSQSTQRIEGAMNANNNISEVRERYQRKNVLEKAKRYQFENDEEDDEMELEIDRNLDQIQQVSNRLKKMALTTGKELCSQQKRLNNIEESTDDLDINLHMNTNRLAGIR
modifications: MTSSL nitroxide spin label on cysteine 620
With B7 the “percent of SN2 … (not in the complex)” value [2] was about 60% and the “percent of SN2 … (not in the complex)” value [3] was about 60%.
